In patent publication US20260098072A1, “METHODS OF STIMULATING APPETITE AND/OR INCREASING BODY WEIGHT USING NON-NATURALLY OCCURRING MELANOCORTIN RECEPTOR ANTAGONIST ANALOGS” (Endevica Bio, Inc., priority 2022, published 2026):
Where “and” joins values, the source holds several entries; their conditions need not be identical. Identical values can stand only once. Counter-ions that a name gives are not always drawn. Positions of bridges follow the written chain, without caps; N, C: chain ends. Non-standard residues stand in square brackets, D forms with d. Residues, ends and D or L forms follow the SMILES beside them. No end group written: not given here. d2Nal = N[C@H](Cc1ccc2ccccc2c1)C(=O)O; Hyp = O=C(O)[C@@H]1C[C@@H](O)CN1; Nle = CCCC[C@H](N)C(=O)O

Experiments:
human MC3R = biological target: T1, human MC3R (Homo sapiens, UniProt P41968); assay: cAMP accumulation assay (HTRF), antagonist activity at MC3R; assay type: cell-based; conditions: for Hill Coefficient / Top (%): dose-response fit, MC3R; for Emax / IC50: HEK293/CRE-luc/MC3R; for Emax: 0.1 nM to 1,000 nM, read-out: Max Activation %; for IC50: estimated from dose-response curve
T1 construct: expressed in transfected cells; host or cells: HEK293/CRE-luc/MC3R
Method: (§1) The antagonist activity of exemplary non-naturally occurring melanocortin analogs (SEQ ID NOs: 3, 4, 6, 9-11, 14, 15, and 291-309) at the melanocortin 3 receptor (MC3R) and melanocortin 4 (MC4R) receptor was measured via cAMP accumulation assay, according to the following procedure.
(§2) Recombinant cell lines shown in Table 1 were stimulated with melanocortin receptor antagonists and evaluated for cyclic adenosine monophosphate (cAMP) levels as a measurement of receptor activation. cAMP levels were quantified using Homogeneous Time-Resolved Fluorescence (HTRF). The stimulation and CAMP measurement were performed sequentially. First, the compound stimulated the G-protein coupled receptor (GPCR) which then induced downstream signaling, which was measured soon after. Cell lines and stimulated receptors used are detailed in Table 1.
(§3) Twenty-seven exemplary synthetic peptides were tested for antagonist activity at the human MC3R and MC4R at concentrations ranging from 0.1 nM to 1,000 nM. After stimulation, the level of cyclic adenosine monophosphate (CAMP) in each well was quantified via Homogenous Time-Resolved Fluorescence (HTRF) as a measurement of receptor activity. Dose-response curves and estimated IC50 values were then obtained for each antagonist peptide against the MC3R and MC4R. HS024 (TFA) and was used as a positive control for the antagonist activity of MC3R (FIG. 1A) and MC4R (FIG. 1B).

human MC4R = biological target: T2, human MC4R (Homo sapiens, UniProt P32245); assay: cAMP accumulation assay (HTRF), antagonist activity at MC4R; assay type: cell-based; conditions: for Hill Coefficient / Top (%): dose-response fit, MC4R; for Emax: HEK293, HEK293/MC4R/CRE-GFP, 0.1 nM to 1,000 nM, read-out: Max Activation %; for IC50: HEK293/MC4R/CRE-GFP, estimated from dose-response curve
T2 construct: expressed in transfected cells; host or cells: HEK293/MC4R/CRE-GFP
Method: as §1, §2, §3

T1 sequence (P41968 whole entry): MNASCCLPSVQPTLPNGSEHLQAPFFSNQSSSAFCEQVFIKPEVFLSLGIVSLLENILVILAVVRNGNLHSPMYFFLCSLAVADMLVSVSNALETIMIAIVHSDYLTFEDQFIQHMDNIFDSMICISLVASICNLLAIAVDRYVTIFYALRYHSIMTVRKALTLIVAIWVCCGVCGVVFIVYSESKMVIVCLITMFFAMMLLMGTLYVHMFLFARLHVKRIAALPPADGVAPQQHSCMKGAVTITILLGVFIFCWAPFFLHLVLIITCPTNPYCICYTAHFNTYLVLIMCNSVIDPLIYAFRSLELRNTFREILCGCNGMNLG
T2 sequence (P32245 whole entry): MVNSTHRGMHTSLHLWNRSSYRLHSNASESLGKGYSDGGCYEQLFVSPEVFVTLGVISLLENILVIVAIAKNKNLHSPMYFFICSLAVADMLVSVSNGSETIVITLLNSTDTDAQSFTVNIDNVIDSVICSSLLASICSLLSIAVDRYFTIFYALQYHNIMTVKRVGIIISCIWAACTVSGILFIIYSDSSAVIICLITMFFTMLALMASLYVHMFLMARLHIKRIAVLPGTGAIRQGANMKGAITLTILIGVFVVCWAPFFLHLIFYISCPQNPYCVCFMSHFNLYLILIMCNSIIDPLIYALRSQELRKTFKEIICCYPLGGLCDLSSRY

| Compound | Hill Coefficient (human MC3R) | Hill Coefficient (human MC4R) | Top (%) (human MC4R) | Top (%) (human MC3R) | Emax (human MC3R) | IC50 (human MC3R) | Emax (human MC4R) | IC50 (human MC4R) |
| --- | --- | --- | --- | --- | --- | --- | --- | --- |
| LPWRWVP [Peptide C4] | −5.34 | −7.31 | −1.97% |  |  |  |  |  |
| IPWRWVP [Peptide C5] | 13.82 | 1.13 | 3.02% | −0.10% |  |  |  |  |
| LDPFFRWKVP [Peptide B7] | −0.84 | −1.76 | 516.09% | 7754.77% |  |  |  |  |
| IDPFFRWKVP [Peptide B8] | 12.04 | 0.49 | 20.03% | 4.40% |  |  |  |  |
| CCCC[C@H](NC(C)=O)C(=O)N[C@H]1CC(=O)NCCCC[C@@H](C(=O)N2CCC[C@@H]2C(=O)N[C@@H](C(N)=O)C(C)C)NC(=O)[C@H](Cc2c[nH]c3ccccc23)NC(=O)[C@H](CCCNC(=N)N)NC(=O)[C@@H](Cc2ccc3ccccc3c2)NC(=O)[C@H](Cc2c[nH]cn2)NC(=O)[C@@H]2CCCN2C1=O [Peptide D5, Ac-Nle-c(Asp-Pro-His-Dnal(2′)-Arg-Trp-Lys)-Dpro-Dval-NH2] (Ac-[Nle]DPH[d2Nal]RWK[dP][dV]-NH2; lactam 2-8) | 1.04 | 0.67 | 2724.46% | 472.61% | 24.6% | > 10 µM | 41.5% |  |
| Ac-Nle-c(Asp-Pro-Phe-Phe-Arg-Trp-Lys)-Dval-Dpro-NH2 (Ac-[Nle]DPFFRWK[dV][dP]-NH2; lactam 2-8; SMILES CCCC[C@H](NC(C)=O)C(=O)N[C@H]1CC(=O)NCCCC[C@@H](C(=O)N[C@@H](C(=O)N2CCC[C@@H]2C(N)=O)C(C)C)NC(=O)[C@H](Cc2c[nH]c3ccccc23)NC(=O)[C@H](CCCNC(=N)N)NC(=O)[C@H](Cc2ccccc2)NC(=O)[C@H](Cc2ccccc2)NC(=O)[C@@H]2CCCN2C1=O) [Peptide B1] | 1.05 | 7.57 |  |  |  |  |  |  |
| CCCC[C@H](NC(C)=O)C(=O)N[C@H]1CC(=O)NCCCC[C@@H](C(=O)N[C@@H](C(=O)N2CCC[C@@H]2C(N)=O)C(C)C)NC(=O)[C@H](Cc2c[nH]c3ccccc23)NC(=O)[C@H](CCCNC(=N)N)NC(=O)[C@@H](Cc2ccc3ccccc3c2)NC(=O)[C@H](Cc2c[nH]cn2)NC(=O)[C@@H]2CCCN2C1=O [Peptide D1, Ac-Nle-c(Asp-Pro-His-Dnal(2′)-Arg-Trp-Lys)-Dval-Dpro-NH2] (Ac-[Nle]DPH[d2Nal]RWK[dV][dP]-NH2; lactam 2-8) | 0.73 | 0.55 | 2739.03% | 4952.72% | 74.5% | < 10 µM | 49.4% | > 10 µM |
| VDPFFRWKVP [Peptide B9] | 2.26 | −19.71 | −0.55% | 1.22% |  |  |  |  |
| CCCC[C@H](NC(C)=O)C(=O)N[C@@H](CC(=O)O)C(=O)N1CCC[C@H]1C(=O)N[C@H](Cc1ccc2ccccc2c1)C(=O)N[C@@H](CCCNC(=N)N)C(=O)N[C@@H](Cc1c[nH]c2ccccc12)C(=O)N[C@@H](CCCCN)C(=O)N[C@@H](C(=O)N1CCC[C@@H]1C(N)=O)C(C)C [Peptide A1, Ac-Nle-Asp-Pro-Dnal(2′)-Arg-Trp-Lys-Dval-Dpro-NH2] (Ac-[Nle]DP[d2Nal]RWK[dV][dP]-NH2) | 0.55 | 0.43 and 0.32 | 1195.94% and 652.03% | 1002.64% | 84.4% | < 10 µM |  | < 10 µM |
| VPFFRWVP [Peptide B6] | 1.62 | 0.28 | 37.93% | 4.27% |  |  |  |  |
| LDPWRWKVP [Peptide C7] | −0.13 | 1.62 | 4.61% | 1.86% |  |  |  |  |
| Ac-Leu-c(Asp-Pro-Trp-Arg-Trp-Lys)-Val-Pro-NH2 (Ac-LDPWRWKVP-NH2; lactam 2-7; SMILES CC(=O)N[C@@H](CC(C)C)C(=O)N[C@H]1CC(=O)NCCCC[C@@H](C(=O)N[C@H](C(=O)N2CCC[C@H]2C(N)=O)C(C)C)NC(=O)[C@H](Cc2c[nH]c3ccccc23)NC(=O)[C@H](CCCNC(=N)N)NC(=O)[C@H](Cc2c[nH]c3ccccc23)NC(=O)[C@@H]2CCCN2C1=O) [Peptide C2] | −0.48 | 48.53 | −2.85% | 0.42% |  |  |  |  |
| Ac-Nle-c(Asp-His-Dnal(2′)-Arg-Trp-Pro-Lys)-Dval-Dpro-NH2 (Ac-[Nle]DH[d2Nal]RWPK[dV][dP]-NH2; lactam 2-8; SMILES CCCC[C@H](NC(C)=O)C(=O)N[C@H]1CC(=O)NCCCC[C@@H](C(=O)N[C@@H](C(=O)N2CCC[C@@H]2C(N)=O)C(C)C)NC(=O)[C@@H]2CCCN2C(=O)[C@H](Cc2c[nH]c3ccccc23)NC(=O)[C@H](CCCNC(=N)N)NC(=O)[C@@H](Cc2ccc3ccccc3c2)NC(=O)[C@H](Cc2c[nH]cn2)NC1=O) [Peptide D2] | 0.84 | 1.55 | 18.76% | 177.39% |  |  |  |  |
| IPFFRWVP [Peptide B5] | −0.76 | 1.22 |  | 736.17% |  |  |  |  |
| Ac-Nle-c(Asp-Pro-Trp-Arg-Trp-Lys)-Dval-Dpro-NH2 (Ac-[Nle]DPWRWK[dV][dP]-NH2; lactam 2-7; SMILES CCCC[C@H](NC(C)=O)C(=O)N[C@H]1CC(=O)NCCCC[C@@H](C(=O)N[C@@H](C(=O)N2CCC[C@@H]2C(N)=O)C(C)C)NC(=O)[C@H](Cc2c[nH]c3ccccc23)NC(=O)[C@H](CCCNC(=N)N)NC(=O)[C@H](Cc2c[nH]c3ccccc23)NC(=O)[C@@H]2CCCN2C1=O) [Peptide C1] | 0.23 | 0.08 | 51.32% | 6.49% |  |  |  |  |
| CCCC[C@@H]1NC(=O)[C@@H](NC(C)=O)CSSC[C@@H](C(N)=O)NC(=O)CNC(=O)[C@H](Cc2c[nH]c3ccccc23)NC(=O)[C@H](CCCNC(=N)N)NC(=O)[C@@H](Cc2ccc3ccccc3c2)NC(=O)[C@H](Cc2c[nH]cn2)NC(=O)[C@H](CCCNC(=N)N)NC1=O [HS024(TFA), reference compound] (Ac-C[Nle]RH[d2Nal]RWGC-NH2; disulfide 1-9 (inferred); N-terminus and C-terminus assumed) | 0.93 | 0.61 | 113.93% | 117.07% | 102% |  | 104% |  |
| CCCC[C@H](NC(C)=O)C(=O)N[C@H]1CC(=O)NCCCC[C@@H](C(=O)N[C@@H](C(=O)N2CCC[C@@H]2C(N)=O)C(C)C)NC(=O)[C@@H]2CCCN2C(=O)[C@H](Cc2c[nH]c3ccccc23)NC(=O)[C@H](CCCNC(=N)N)NC(=O)[C@@H](Cc2ccc3ccccc3c2)NC(=O)[C@@H]2C[C@@H](O)CN2C1=O [Peptide D4, Ac-Nle-c(Asp-Hyp-Dnal(2′)-Arg-Trp-Pro-Lys)-Dval-Dpro-NH2] (Ac-[Nle]D[Hyp][d2Nal]RWPK[dV][dP]-NH2; lactam 2-8) | 0.65 | 0.92 | 9354.39% | 2741.58% | 50.1% | > 10 µM | 21% |  |
| Ac-Leu-c(Asp-Pro-Phe-Phe-Arg-Trp-Lys)-Val-Pro-NH2 (Ac-LDPFFRWKVP-NH2; lactam 2-8; SMILES CC(=O)N[C@@H](CC(C)C)C(=O)N[C@H]1CC(=O)NCCCC[C@@H](C(=O)N[C@H](C(=O)N2CCC[C@H]2C(N)=O)C(C)C)NC(=O)[C@H](Cc2c[nH]c3ccccc23)NC(=O)[C@H](CCCNC(=N)N)NC(=O)[C@H](Cc2ccccc2)NC(=O)[C@H](Cc2ccccc2)NC(=O)[C@@H]2CCCN2C1=O) [Peptide B2] | 0.34 | 0.69 | 729.66% | 20.30% |  |  |  |  |
| Ac-Nle-Pro-Dnal(2′)-Arg-Trp-Dval-Dpro-NH2 (Ac-[Nle]P[d2Nal]RW[dV][dP]-NH2; SMILES CCCC[C@H](NC(C)=O)C(=O)N1CCC[C@H]1C(=O)N[C@H](Cc1ccc2ccccc2c1)C(=O)N[C@@H](CCCNC(=N)N)C(=O)N[C@@H](Cc1c[nH]c2ccccc12)C(=O)N[C@@H](C(=O)N1CCC[C@@H]1C(N)=O)C(C)C) [Peptide A2] | 0.82 |  |  | 9.73% |  |  |  |  |
| Leu-c(Asp-Pro-Trp-Arg-Trp-Lys)-Val-Pro (LDPWRWKVP; lactam 2-7) [Peptide C3] | 49.34 | 0.44 | 9.36% | 3.18% |  |  |  |  |
| Leu-c(Asp-Pro-Phe-Phe-Arg-Trp-Lys)-Val-Pro (LDPFFRWKVP; lactam 2-8) [Peptide B3] | 1.00 | 9.04 |  | 100.00% |  |  |  |  |
| VPWRWVP [Peptide C6] | 1.00 | 2.07 | 321.26% | 100.00% |  |  |  |  |
